Measurements: article PMC4889941, “Flexibility of KorA, a plasmid-encoded, global transcription regulator, in the presence and the absence of its operator” (Nucleic Acids Research, 2016)

Biological target: the molecule itself
Assay: SAXS; free KorA at 2.5, 5 and 10 mg/ml in 20 mM Tris-HCl pH 7.0, 100 mM NaCl, 1 mM EDTA, 293K; confirmed by SEC-SAXS (Superdex 200 Increase, 4 mg/ml); mass from I0 against bovine serum albumin

B1: KorA repressor from the IncP1 plasmid RK2 (natural protein)
chain: MKKRLTESQFQEAIQGLEVGQQTIEIARGVLVDGKPQATFATSLGLTRGAVSQAVHRVWAAFEDKNLPEGYARVTAVLPEHQAYIVRKWEADAKKKQETKR
notes: KorA, global transcription repressor encoded by the IncP1 plasmid RK2; 13C/15N-labelled protein was used for NMR; also called free KorA; KorA dimer
B1 was tested, and the “stoichiometry N” value was 2.
